In US20220056124A1 (University of Texas, published 2022):
Residue numbers refer to the chain shown, from its start. One block for each binder: values may come before it.

Columns and labels:
[1] = biological target: T1, recombinant human endotrophin (77 amino acids at the carboxy-terminal of the COL6α3 chain, HEK293-expressed, … (human, UniProt P12111 3101-3177)); assay: BLI (Octet RED96), antibody on protein A biosensors, endotrophin 0.1-200 nM, 1:1 fit
T1 construct: the His-tag was removed by enterokinase, leaving the 77 amino acid endotrophin free of tags; also called ETP; recombinant endotrophin protein
Description: Following a short baseline in kinetics buffer, the loaded biosensors were exposed to a series of recombinant endotrophin protein at 0.1-200 nM and background subtraction was used to correct for sensor drifting. All experiments were performed with shaking at 1,000 rpm. Background wavelength shifts were measured from reference biosensors that were loaded only with antibody. Kinetic sensorgrams for each antibody are shown in FIGS. 12A&B. ForteBio's data analysis software was used to fit the data to a 1:1 binding model to extract an association rate and dissociation rate.

[2] = biological target: T1, recombinant human endotrophin (77 amino …); assay: ELISA titration on plate-coated recombinant endotrophin, 4-parameter fit
Description: (§1) Antibody-antigen ELISA Binding Assay. Corning 96-well EIA/RIA plates were coated overnight at 4° C. with HEK293 expressed recombinant endotrophin (1 μg/mL) and blocked for 2 hr at 37° C. with 5% non-fat milk. After washing with PBST for 3 times, 100 μL of serial diluted anti-endotrophin antibodies were added and incubated for 45 min at 37° C. Subsequently, the plates were washed with PBST and incubated for 30 min with anti-rabbit or anti-human F(ab′)2 HRP-conjugated antibody (Jackson ImmunoResearch Laboratories). The immunoreactions were developed with TMB substrates (Sigma) and stopped by the addition of 2 M sulfuric acid before reading the plate at 450 nm.
(§2) Binding of endotrophin by monoclonal antibodies was first screened by ELISA using supernatants collected from the B cell cultures (FIG. 10). ELISA titration was used to determine the binding affinity of a panel of monoclonal antibodies to endotrophin antigen (FIG. 11). Binding constants (EC₅₀) of a panel of monoclonal antibodies were estimated using four-parameter curve fitting with Prism GraphPad (Table 3).

[3] = biological target: T1, recombinant human endotrophin (77 amino …); assay: ELISA titration, plate coated with recombinant endotrophin, serially diluted antibody, HRP secondary antibody, OD450
Description: as §1, §2

[4] = biological target: T1, recombinant human endotrophin (77 amino …); assay: BLI (Octet RED96)

T1 sequence (P12111 3101-3177 limits assumed): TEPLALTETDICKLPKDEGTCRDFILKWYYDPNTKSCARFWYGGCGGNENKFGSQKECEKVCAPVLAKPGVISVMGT

Kd [1]: 2.03 nM | koff [1]: 0.000235 s⁻¹ | kon [1]: 116000 M⁻¹ s⁻¹
B1: ETP-mAb4.1 (humanized ETP-hMab4) (antibody, human IgG1, V domains shown)
VH: EVQLLESGGGLVQPGGSLRLSCAASGFSFSSGYYICWVRQAPGKGLEWIACIYGGNNNPYYANWVNGRFTISRDNSKNTLYLQMNSLRAEDTAVYYCARKDINIGGAYELWGQGTLVTVSS
VL: DIQMTQSPSSLSASVGDRVTITCQASQSISSSYLSWYQQKPGKAPKLLIYKASTLASGVPSRFSGSGSGTDFTLTISSLQPEDFATYYCQYSDWANSYGNAFGGGTKVEIK
notes: Humanized; tied by the number 4.1; also called ENT-hMab4.1

Kd [1]: 2.48 nM | koff [1]: 0.000305 s⁻¹ | kon [1]: 123000 M⁻¹ s⁻¹
B2: ETP-mAb4.2 (humanized ETP-hMab4) (antibody, human IgG1, V domains shown)
VH: B1 VH with N57S
VL: B1 VL
notes: also called ENT-hMab4.2

Kd [1]: 2.53 nM | koff [1]: 0.000328 s⁻¹ | kon [1]: 130000 M⁻¹ s⁻¹
B3: ETP-mAb4.4 (humanized ETP-hMab4) (antibody, human IgG1, V domains shown)
VH: B1 VH with I71T
VL: B1 VL
notes: also called ENT-hMab4.4

Kd [1]: 1.92 nM | koff [1]: 0.000223 s⁻¹ | kon [1]: 116000 M⁻¹ s⁻¹
B4: ETP-mAb4.5 (humanized ETP-hMab4) (antibody, human IgG1, V domains shown)
VH: B1 VH with S28T, N57S
VL: B1 VL
notes: also called ENT-hMab4.5

EC50 [2]: 0.1 µg/mL | EC50 (read off the curve) [3]: ~0.1 µg/mL
B5: ETP-mAb2 (antibody, V domains shown)
VH: EQSLEESEGGLVQPEGSLTLTCTASGFSFSRSDYMCWVRQAPGKGLEWIGWIDPGYSDTYYASWAQGRTTISKASSTTVTLQMTSLTVADTATYFCARDLGFDSNLWGPGTLVTISS
VL: ELDLTQTPASVSEPVGGTVTIKCQASQSINSYLSWYQQKPGQPPKLLIYQASKLASGVPSRFKGSGSGTQFTLTISDLECADAATYYCQSYDYRISGSDGNVFGGGTNVEIK
notes: Rabbit monoclonal

EC50 [2]: 0.053 µg/mL | EC50 (read off the curve) [3]: ~0.06 µg/mL
B6: ETP-mAb6 (antibody, V domains shown)
VH: QSVKESEGGLVQPEGSLTLTCTASGFSFSNSDYMCWVRQAPGKGLEWIGWIDLVGNTNSYYASWAKGRFTISKTSSTTVALQMTSLTVADTATYFCARDLGFDTNLWGPGTLVTVSS
VL: ELDLTQTPASVSAAVGGTVTINCQASQNINSWLSWYQQKPGQRPKLLIYQASKLPSGVPSRFKGSGSGTQFTLTISDLECADAATYYCQSHDYRTTGSYGNVFGGGTEVEIK
notes: Rabbit monoclonal

EC50 [2]: 0.023 µg/mL | EC50 (read off the curve) [3]: ~0.02 µg/mL
B7: ETP-mAb1 (antibody, V domains shown)
VH: QSVKESGGDLVKPGASLTLTCTASGIDFSAGYYMCWVRQAPGKGLELIACIYAGRSLNTFYASWAKGRFTISRASSTTVTLAMTSLTAADTATYFCARDGASSGYYFKLWGPGTLVTISS
VL: ELDMTQTPASVEVAVGGTVTIKCQASQSIGSNLAWYQQKPGQRPNVLIYDASNLASGVSSRFKGSGSGTQFTLTISGGECADAATYYCQQGYSDNYLDNAFGGGTEVVVK
notes: Rabbit monoclonal

EC50 [2]: 0.359 µg/mL | EC50 (read off the curve) [3]: ~0.4 µg/mL
B8: ETP-mAb11 (antibody, V domains shown)
VH: QSVKESEGGLVQPEGSLTLTCTASGFSFSSSYYMCWVRQAPGKGLEWIGCIYLGNNENTAYTSWAKGRFTISKTSSTTVTLQMTSLTAADTTTYFCARDTSGGSDYYFGLWGPGTLVTISS
VL: ELDLTQTPASVEVAVGGTVTIKCQASHRIKTYLAWYQQKPGQPPKLLIYGASTLASGVPSRFKGSGSGTQFTLTISGVECADAATYYCQQGYSDGNVDNVFGGGTEVEIK
notes: Rabbit monoclonal

EC50 [2]: 0.142 µg/mL | EC50 (read off the curve) [3]: ~0.1 µg/mL
B9: ETP-mAb10 (antibody, V domains shown)
VH: QSLEESGGGLVQPEGSLTLTCTASGFSFSRGDYMCWVRQAPGKGLEWIGWIDVGRDNDSYYATWAKGRFSISKTSSTTVTLQMTSLTVADTATYFCARDLGFDTNLWGPGTLVTVSS
VL: ELDMTQTPASVSAAVGGTVTINCQASQNINSWLSWYQQKPGQPPKLLIYQASKLASGVPSRLKGSGSGTQFSLTISDLECADGATYYCQSYDYRSSGNGGNVFGGGTEVEIK
notes: Rabbit monoclonal

EC50 [2]: 0.306 µg/mL | EC50 (read off the curve) [3]: ~0.3 µg/mL
B10: ETP-mAb72 (antibody, V domains shown)
VH: B9 VH with M34V, R55S, D56V, N57I, D58E, S70T
VL: ELVMTQTPASVEAAVGGTVTINCQASESISIYLNWYQQKPGQPPKLLIYQASKLASGVPSRFKGSGSGTEFTLTISDLECADAATYYCQSHDYRIGRSDCNVFGGGTNVEIK
notes: Rabbit monoclonal

Kd [1]: 1.75 nM | koff [1]: 0.000249 s⁻¹ | kon [1]: 142000 M⁻¹ s⁻¹ | EC50 [2]: 0.054 µg/mL | EC50 (read off the curve) [3]: ~0.06 µg/mL | Kd [4]: 1.62 nM
B11: ETP-mAb4 (antibody, V domains shown)
VH: SSRVKESGGDLVKPGASLTLTCKASGFSFSSGYYICWVRQAPGKGLEWIACIYGGNNNPYYANWVNGRFTTSKTSSTTVTLQMTNLTGADTATYFCARKDINIGGAYELWGPGTLVTISS
VL: ELVMTQTPASVSEPVGGTVTINCQASQSISSSYLSWYQQKPGQPPKLLIYKASTLASGVPSRFKGSGSGTQFSLTISDLECADAATYYCQYSDWANSYGNAFGGGTEVVVK
notes: Rabbit monoclonal; also called parental rabbit ETPmAb4
